Here are results for 9 molecules from patent US9102922B2, “Trehalose phosphorylases and their use in the biocatalytic production of trehalose-analogues and glycosyl phosphates” (Universiteit Gent, priority 2010, dated 2015).

One series concerns intestinal trehalase. Particulars: cited from earlier work.
Another series has as its target TP from C. pacificum (Caldanaerobacter subterraneus, UniProt Q8RBK9). The series is described as follows: Synthetic activity of TP on monosaccharide acceptors (released phosphate, molybdate assay). As to conditions: acceptor 500 mM; 60° C. and pH 6; D-glucose = 100. Format: biochemical, Carboxydibrachium pacificum. How it is done:
(§1) The phosphorolytic activity of the enzyme was determined using a discontinuous assay in which the released glucose is converted by glucose oxidase and peroxidase (GOD-POD)(Werner et al., 1970). The activity was assayed in 30 mM phosphate buffer at pH 7 and 60° C., using 30 mM disaccharide as substrate. The synthetic activity of the enzyme was determined using a discontinuous assay in which the released phosphate is complexed by molybdate and ascorbic acid (Gawronski and Benson, 2004). The activity was assayed in 50 mM MES buffer at pH 6 and 60° C., using 30 mM β-glucose-1-phosphate as donor and 500 mM of acceptor substrates.

Series [1] has as its system trehalose phosphorylase (TP). Kind of series: Phosphorolytic activity of the TP on other α-glucobioses (GOD-POD assay). The series is classed as biochemical, Caldanaerobacter subterraneus. Here is the method:
as §1

Series [2] in a line: Donor specificity: phosphorolysis of lactotrehalose by CsTP variants (release of βGal1P and βGlc1P). The series is classed as biochemical.
The nature of series [3]: Kinetic parameters of TP variants on galactose as acceptor. The series is classed as biochemical. As to conditions: Gal as acceptor; 60° C. and pH 6. Here is the method:
(§2) […] The synthetic activity of the enzyme was determined using a discontinuous assay in which the released phosphate is complexed by molybdate and ascorbic acid (Gawronski and Benson, 2004). […] Site-saturation mutagenesis was performed with degenerate primers (NNK) as described by […] et al. (2008), and random mutagenesis was performed with the GeneMorph II EZClone Domain Mutagenesis Kit (Stratagene) according to the manufacturer's instructions. The resulting DNA libraries were transformed into E. coli XL10-Gold, after which the cells were grown on solid LB medium in a Petri dish. Colonies were then transferred to 96-well microtiter plates containing liquid LB medium, in which enzyme expression was induced. Enzyme was extracted by the addition of lysis buffer with a liquid handling robot (Freedom EVO 200, Tecan) and the crude cell extracts were used for enzyme screening. Acceptor screening was performed with the phosphomolybdate assay described above. […] The clones with the highest activity were sequenced to identify the introduced mutations. The improved enzyme variants were then produced and purified as described for the wild-type enzyme, to allow a more detailed characterization.

Series [4] can be described thus: Kinetic parameters of TP variants on glucose as acceptor. Format: biochemical. Particulars: Glc as acceptor; 60° C. and pH 6. Here is the method: as §2
The mark [5] stands for this setting: 100 mM lactotrehalose, pH 7 and 60° C.

Chain of TP from C. pacificum (Q8RBK9 entry or part of it): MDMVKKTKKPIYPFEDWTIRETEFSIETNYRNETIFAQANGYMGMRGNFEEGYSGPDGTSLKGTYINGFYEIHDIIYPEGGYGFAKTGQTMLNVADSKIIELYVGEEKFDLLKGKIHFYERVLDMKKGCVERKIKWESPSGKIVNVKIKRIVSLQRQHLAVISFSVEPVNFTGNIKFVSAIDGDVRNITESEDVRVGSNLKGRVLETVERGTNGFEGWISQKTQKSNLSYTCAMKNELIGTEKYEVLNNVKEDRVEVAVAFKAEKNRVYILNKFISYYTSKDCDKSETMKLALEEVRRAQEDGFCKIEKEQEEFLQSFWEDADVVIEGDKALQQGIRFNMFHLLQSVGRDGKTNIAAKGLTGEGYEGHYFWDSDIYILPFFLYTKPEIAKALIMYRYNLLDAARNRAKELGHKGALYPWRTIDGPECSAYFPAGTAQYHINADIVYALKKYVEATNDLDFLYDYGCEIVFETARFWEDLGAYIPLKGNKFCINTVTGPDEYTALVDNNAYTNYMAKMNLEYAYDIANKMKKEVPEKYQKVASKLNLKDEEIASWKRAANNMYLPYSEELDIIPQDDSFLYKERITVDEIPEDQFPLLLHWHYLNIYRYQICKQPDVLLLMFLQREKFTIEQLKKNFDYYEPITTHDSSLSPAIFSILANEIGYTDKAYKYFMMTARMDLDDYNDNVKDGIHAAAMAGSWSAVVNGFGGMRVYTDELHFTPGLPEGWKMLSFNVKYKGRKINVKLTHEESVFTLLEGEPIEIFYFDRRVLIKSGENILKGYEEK

On to `OC[C@H]1O[C@H](O[C@H]2O[C@H](CO)[C@@H](O)[C@H](O)[C@H]2O)[C@H](O)[C@@H](O)[C@H]1O` [lactotrehalose, Galactose-α-1,1-α-glucose], for which, in the series on intestinal trehalase, the “effect on intestinal trehalase” value was “competitive inhibitor” and the “hydrolysis by intestinal trehalase” value is “not hydrolysed”.

Consider `O=C[C@@H](O)[C@H](O)[C@H](O)CO` [D-Arabinose], for which the “Relative activity (%)” value on TP from C. pacificum was determined as 2%.

For the molecule `O=C[C@@H](O)[C@@H](O)[C@H](O)CO` [D-Lyxose], the “Relative activity (%)” value at TP from C. pacificum is given as 1%.

Regarding `OC[C@H]1O[C@H](O[C@H]2C(O)O[C@H](CO)[C@@H](O)[C@@H]2O)[C@H](O)[C@@H](O)[C@@H]1O` (some centres unmarked) [kojibiose], the “Activity towards other α-glucobioses” value in series [1] is listed as “could not be detected”.

For the molecule `OC[C@H]1O[C@H](O[C@H]2[C@H](O)[C@@H](O)C(O)O[C@@H]2CO)[C@H](O)[C@@H](O)[C@@H]1O` (mixture of isomers) [maltose], the “Activity towards other α-glucobioses” value in series [1] was “could not be detected”.

B1: L649G: CsTP variant, leucine at position 649 of SEQ ID N° 1 substituted for glycine (protein, listed as Caldanaerobacter subterraneus)
chain: MDMVKKTKKPIYPFEDWTIRETEFSIETNYRNETIFAQANGYMGMRGNFEEGYSGPDGTSLKGTYINGFYEIHDIIYPEGGYGFAKTGQTMLNVADSKIIELYVGEEKFDLLKGKIHFYERVLDMKKGCVERKIKWESPSGKIVNVKIKRIVSLQRQHLAVISFSVEPVNFTGNIKFVSAIDGDVRNITESEDVRVGSNLKGRVLETVERGTNGFEGWISQKTQKSNLSYTCAMKNELIGTEKYEVLNNVKEDRVEVAVAFKAEKNRVYILNKFISYYTSKDCDKSETMKLALEEVRRAQEDGFCKIEKEQEEFLQSFWEDADVVIEGDKALQQGIRFNMFHLLQSVGRDGKTNIAAKGLTGEGYEGHYFWDSDIYILPFFLYTKPEIAKALIMYRYNLLDAARNRAKELGHKGALYPWRTIDGPECSAYFPAGTAQYHINADIVYALKKYVEATNDLDFLYDYGCEIVFETARFWEDLGAYIPLKGNKFCINTVTGPDEYTALVDNNAYTNYMAKMNLEYAYDIANKMKKEVPEKYQKVASKLNLKDEEIASWKRAANNMYLPYSEELDIIPQDDSFLYKERITVDEIPEDQFPLLLHWHYLNIYRYQICKQPDVLLLMFLQREKFTIEQLKKNFDYYEPITTHDSSGSPAIFSILANEIGYTDKAYKYFMMTARMDLDDYNDNVKDGIHAAAMAGSWSAVVNGFGGMRVYTDELHFTPGLPEGWKMLSFNVKYKGRKINVKLTHEESVFTLLEGEPIEIFYFDRRVLIKSGENILKGYEEK
For the molecule B1, the “donor preference in phosphorolysis of lactotrehalose” value in series [2] was “preferentially produced βGal1P”. Moreover, in series [2] (setting [5]), the “Ratio βGal1P/βGlc1P” value was 2.6, the “Release of βGal1P” value came out at 0.22 U/mg and the “Release of βGlc1P” value stood at 0.09 U/mg. Moreover, the “fold increase in the ratio of beta-galactose-1-phosphate over beta-glucose-1-phosphate release from lactotrehalose” value in series [2] (compared with wild type) was 60 fold.

B2: K450S: CsTP mutant, lysine at position 450 of SEQ ID N° 1 substituted for serine (protein, listed as Caldanaerobacter subterraneus)
chain: MDMVKKTKKPIYPFEDWTIRETEFSIETNYRNETIFAQANGYMGMRGNFEEGYSGPDGTSLKGTYINGFYEIHDIIYPEGGYGFAKTGQTMLNVADSKIIELYVGEEKFDLLKGKIHFYERVLDMKKGCVERKIKWESPSGKIVNVKIKRIVSLQRQHLAVISFSVEPVNFTGNIKFVSAIDGDVRNITESEDVRVGSNLKGRVLETVERGTNGFEGWISQKTQKSNLSYTCAMKNELIGTEKYEVLNNVKEDRVEVAVAFKAEKNRVYILNKFISYYTSKDCDKSETMKLALEEVRRAQEDGFCKIEKEQEEFLQSFWEDADVVIEGDKALQQGIRFNMFHLLQSVGRDGKTNIAAKGLTGEGYEGHYFWDSDIYILPFFLYTKPEIAKALIMYRYNLLDAARNRAKELGHKGALYPWRTIDGPECSAYFPAGTAQYHINADIVYALKSYVEATNDLDFLYDYGCEIVFETARFWEDLGAYIPLKGNKFCINTVTGPDEYTALVDNNAYTNYMAKMNLEYAYDIANKMKKEVPEKYQKVASKLNLKDEEIASWKRAANNMYLPYSEELDIIPQDDSFLYKERITVDEIPEDQFPLLLHWHYLNIYRYQICKQPDVLLLMFLQREKFTIEQLKKNFDYYEPITTHDSSLSPAIFSILANEIGYTDKAYKYFMMTARMDLDDYNDNVKDGIHAAAMAGSWSAVVNGFGGMRVYTDELHFTPGLPEGWKMLSFNVKYKGRKINVKLTHEESVFTLLEGEPIEIFYFDRRVLIKSGENILKGYEEK
As for B2, in series [3], the Km came to 78.4 mM and the turnover number (kcat) is 53 s⁻¹. Also, in series [4], the Km was 2.3 mM and the turnover number (kcat) was found to be 62 s⁻¹.

B3: N659Y: CsTP mutant at position 659 of SEQ ID N° 1 (protein, listed as Caldanaerobacter subterraneus)
chain: MDMVKKTKKPIYPFEDWTIRETEFSIETNYRNETIFAQANGYMGMRGNFEEGYSGPDGTSLKGTYINGFYEIHDIIYPEGGYGFAKTGQTMLNVADSKIIELYVGEEKFDLLKGKIHFYERVLDMKKGCVERKIKWESPSGKIVNVKIKRIVSLQRQHLAVISFSVEPVNFTGNIKFVSAIDGDVRNITESEDVRVGSNLKGRVLETVERGTNGFEGWISQKTQKSNLSYTCAMKNELIGTEKYEVLNNVKEDRVEVAVAFKAEKNRVYILNKFISYYTSKDCDKSETMKLALEEVRRAQEDGFCKIEKEQEEFLQSFWEDADVVIEGDKALQQGIRFNMFHLLQSVGRDGKTNIAAKGLTGEGYEGHYFWDSDIYILPFFLYTKPEIAKALIMYRYNLLDAARNRAKELGHKGALYPWRTIDGPECSAYFPAGTAQYHINADIVYALKKYVEATNDLDFLYDYGCEIVFETARFWEDLGAYIPLKGNKFCINTVTGPDEYTALVDNNAYTNYMAKMNLEYAYDIANKMKKEVPEKYQKVASKLNLKDEEIASWKRAANNMYLPYSEELDIIPQDDSFLYKERITVDEIPEDQFPLLLHWHYLNIYRYQICKQPDVLLLMFLQREKFTIEQLKKNFDYYEPITTHDSSLSPAIFSILAYEIGYTDKAYKYFMMTARMDLDDYNDNVKDGIHAAAMAGSWSAVVNGFGGMRVYTDELHFTPGLPEGWKMLSFNVKYKGRKINVKLTHEESVFTLLEGEPIEIFYFDRRVLIKSGENILKGYEEK
Regarding B3, the Km in series [3] is 46.3 mM; in series [4] it was 1.2 mM. For the same molecule, the kcat amounted to 51 s⁻¹ in series [3] and 46 s⁻¹ in series [4].

B4: A442V: CsTP mutant, Ala442 of SEQ ID N° 1 into Val (protein, listed as Caldanaerobacter subterraneus)
chain: MDMVKKTKKPIYPFEDWTIRETEFSIETNYRNETIFAQANGYMGMRGNFEEGYSGPDGTSLKGTYINGFYEIHDIIYPEGGYGFAKTGQTMLNVADSKIIELYVGEEKFDLLKGKIHFYERVLDMKKGCVERKIKWESPSGKIVNVKIKRIVSLQRQHLAVISFSVEPVNFTGNIKFVSAIDGDVRNITESEDVRVGSNLKGRVLETVERGTNGFEGWISQKTQKSNLSYTCAMKNELIGTEKYEVLNNVKEDRVEVAVAFKAEKNRVYILNKFISYYTSKDCDKSETMKLALEEVRRAQEDGFCKIEKEQEEFLQSFWEDADVVIEGDKALQQGIRFNMFHLLQSVGRDGKTNIAAKGLTGEGYEGHYFWDSDIYILPFFLYTKPEIAKALIMYRYNLLDAARNRAKELGHKGALYPWRTIDGPECSAYFPAGTAQYHINVDIVYALKKYVEATNDLDFLYDYGCEIVFETARFWEDLGAYIPLKGNKFCINTVTGPDEYTALVDNNAYTNYMAKMNLEYAYDIANKMKKEVPEKYQKVASKLNLKDEEIASWKRAANNMYLPYSEELDIIPQDDSFLYKERITVDEIPEDQFPLLLHWHYLNIYRYQICKQPDVLLLMFLQREKFTIEQLKKNFDYYEPITTHDSSLSPAIFSILANEIGYTDKAYKYFMMTARMDLDDYNDNVKDGIHAAAMAGSWSAVVNGFGGMRVYTDELHFTPGLPEGWKMLSFNVKYKGRKINVKLTHEESVFTLLEGEPIEIFYFDRRVLIKSGENILKGYEEK
For the molecule B4, in series [3], the Michaelis-Menten constant (Km) worked out at 70.2 mM and the turnover number (kcat) was found to be 52 s⁻¹. Besides, in series [4], the Km was determined as 2.3 mM and the kcat is 67 s⁻¹.
